According to the supplement of paper PMC7125110:
± gives the standard error. This sample holds only a part of the variants without activity.

B1: glmS ribozyme (parent)
chain: AUAAAAGCGCCAGAACUACAGAAAUGUAGUUGACGAGGAGGAGGUUUAUCGAAUUUUCGGCGGAUGCCUCCAAA

What was measured:
Conditions in all cases: with glucosamine-6-phosphate
glucosamine-6-phosphate [1] = variants of: B1; experiment: self-cleavage kobs at 40 uM GlcN6P; higher = faster cleavage; RNA array
How it was run: (§1)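 Barcoded glmS ribozyme variants on sequenced MiSeq chips were transcribed in situ by E. coli RNA polymerase and tracked through a hybridised Cy3 probe at 37 °C. Glucosamine-6-phosphate (40 μM to 10 mM) in HEPES/KCl/Mg(OAc)2 buffer was flowed in, and tiles were imaged over ~14 h. Signals were normalised to baseline and to non-cleaving reference variants; per-tile medians were fit to one- or two-exponential decays to give kobs. kcat and KM came from weighted Michaelis–Menten fits across concentrations.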

glucosamine-6-phosphate [2] = variants of: B1; experiment: self-cleavage kobs at 160 uM GlcN6P; higher = faster cleavage; RNA array
How it was run: as §1

glucosamine-6-phosphate [3] = variants of: B1; experiment: self-cleavage kobs at 640 uM GlcN6P; higher = faster cleavage; RNA array
How it was run: as §1

glucosamine-6-phosphate [4] = variants of: B1; experiment: self-cleavage kobs at 2500 uM GlcN6P; higher = faster cleavage; RNA array
How it was run: as §1

glucosamine-6-phosphate [5] = variants of: B1; experiment: self-cleavage kobs at 10000 uM GlcN6P; higher = faster cleavage; RNA array
How it was run: as §1

Variant | self-cleavage kobs at 40 uM GlcN6P (glucosamine-6-phosphate [1]) | self-cleavage kobs at 160 uM GlcN6P (glucosamine-6-phosphate [2]) | self-cleavage kobs at 640 uM GlcN6P (glucosamine-6-phosphate [3]) | self-cleavage kobs at 2500 uM GlcN6P (glucosamine-6-phosphate [4]) | self-cleavage kobs at 10000 uM GlcN6P (glucosamine-6-phosphate [5])
G13U U31A A39C C68U U69A | < 1e-05 s⁻¹ | < 1e-05 s⁻¹ | < 1e-05 s⁻¹ |  | 
A12U A36G A52U C71G | < 1e-05 s⁻¹ |  |  | < 1e-05 s⁻¹ | < 1e-05 s⁻¹
A14U G35U U69G | 0.000295 ± 0.00012 s⁻¹ |  |  |  | 6.56e-05 ± 1.9e-05 s⁻¹
C11U C50G C68G | 6.75e-05 ± 1.4e-05 s⁻¹ |  | 0.000123 ± 1.8e-05 s⁻¹ | 0.000141 ± 2.8e-05 s⁻¹ | 
G13C U57C | < 1e-05 s⁻¹ | < 1e-05 s⁻¹ | < 1e-05 s⁻¹ |  | 
A14G A42G | 0.0027 ± 0.00037 s⁻¹ | 0.00391 ± 0.0011 s⁻¹ | 0.00956 ± 0.0029 s⁻¹ | 0.0467 ± 0.022 s⁻¹ | 0.0773 ± 0.025 s⁻¹
G13U A52U C70G | < 1e-05 s⁻¹ |  |  |  | 
G13C G63A | < 1e-05 s⁻¹ |  | < 1e-05 s⁻¹ | < 1e-05 s⁻¹ | 
G13C G63U | < 1e-05 s⁻¹ |  |  | < 1e-05 s⁻¹ | 
A14G G51C | < 1e-05 s⁻¹ |  | < 1e-05 s⁻¹ |  | < 1e-05 s⁻¹
A14C C50G C68A | 4.86e-05 ± 1.6e-05 s⁻¹ |  |  |  | 0.000123 ± 2.5e-05 s⁻¹
A12C U57A G62A | < 1e-05 s⁻¹ |  |  |  | 
A14U G43C U69A | < 1e-05 s⁻¹ |  |  |  | < 1e-05 s⁻¹
A12G U27C G29U | < 1e-05 s⁻¹ |  | < 1e-05 s⁻¹ | < 1e-05 s⁻¹ | 
G13U A36G G62U G66U C70A | < 1e-05 s⁻¹ |  |  |  | 
G13C U31C C71U | 4.32e-05 ± 2e-05 s⁻¹ |  |  |  | 0.00114 ± 0.00023 s⁻¹
A12C C50U U54G | < 1e-05 s⁻¹ |  |  |  | 
A12U A52C C58U C71U | < 1e-05 s⁻¹ |  |  |  | 
A12C C16U G41U | 6.93e-05 ± 2e-05 s⁻¹ |  | 0.000163 ± 3.3e-05 s⁻¹ | 0.000447 ± 9.6e-05 s⁻¹ | 0.000649 ± 0.00015 s⁻¹
A14G A33C C70U | < 1e-05 s⁻¹ | < 1e-05 s⁻¹ | < 1e-05 s⁻¹ | < 1e-05 s⁻¹ | < 1e-05 s⁻¹
A14G G59C | < 1e-05 s⁻¹ |  | < 1e-05 s⁻¹ |  | 
A12G G37C U46C A53G C68U | < 1e-05 s⁻¹ |  |  |  | < 1e-05 s⁻¹
A12G C34G G38C A39C A42U G60C C71U | < 1e-05 s⁻¹ |  |  |  | 
A14C A64C G66A | < 1e-05 s⁻¹ | < 1e-05 s⁻¹ |  |  | 
A14C G29A C61G | < 1e-05 s⁻¹ |  |  |  | < 1e-05 s⁻¹
G13C C16U C67A | < 1e-05 s⁻¹ |  |  |  | 3.41e-05 ± 1.2e-05 s⁻¹

Variant | self-cleavage kobs at 40 uM GlcN6P (glucosamine-6-phosphate [1]) | self-cleavage kobs at 160 uM GlcN6P (glucosamine-6-phosphate [2]) | self-cleavage kobs at 640 uM GlcN6P (glucosamine-6-phosphate [3]) | self-cleavage kobs at 2500 uM GlcN6P (glucosamine-6-phosphate [4]) | self-cleavage kobs at 10000 uM GlcN6P (glucosamine-6-phosphate [5])
A14G G66A | 0.000901 ± 0.00011 s⁻¹ | 0.00369 ± 0.0009 s⁻¹ | 0.00997 ± 0.0018 s⁻¹ | 0.0046 ± 0.001 s⁻¹ | 0.0634 ± 0.015 s⁻¹
G13U U31C C50G G63U | < 1e-05 s⁻¹ |  |  |  | 
A14G A36U A48U | < 1e-05 s⁻¹ |  |  |  | 
G13U G41U U46G | < 1e-05 s⁻¹ |  |  |  | 
A12U C50G | 4.38e-05 ± 1.4e-05 s⁻¹ | 0.000613 ± 0.00026 s⁻¹ |  | 6.46e-05 ± 2.2e-05 s⁻¹ | 0.000147 ± 4.2e-05 s⁻¹
G13C U31A G40U | < 1e-05 s⁻¹ |  | < 1e-05 s⁻¹ |  | 
G13U C16U C19A G40U | < 1e-05 s⁻¹ | < 1e-05 s⁻¹ | < 1e-05 s⁻¹ |  | < 1e-05 s⁻¹
G13A U46G | < 1e-05 s⁻¹ | < 1e-05 s⁻¹ |  |  | 0.00013 ± 3e-05 s⁻¹
A14G U30A A39G A53C | 9.97e-05 ± 2.6e-05 s⁻¹ |  |  |  | 0.00799 ± 0.0023 s⁻¹
G13C G44U | < 1e-05 s⁻¹ | < 1e-05 s⁻¹ | < 1e-05 s⁻¹ | < 1e-05 s⁻¹ | < 1e-05 s⁻¹
A12C U30G G32U A33C C58U | < 1e-05 s⁻¹ |  |  |  | < 1e-05 s⁻¹
A12U C34G G40C C50A | < 1e-05 s⁻¹ | < 1e-05 s⁻¹ | < 1e-05 s⁻¹ | < 1e-05 s⁻¹ | 
A14G A39C G66A | 9.51e-05 ± 2.2e-05 s⁻¹ |  |  | 0.00447 ± 0.00085 s⁻¹ | 0.00527 ± 0.0016 s⁻¹
A14U C34G A42U U45C A53C | < 1e-05 s⁻¹ |  |  |  | < 1e-05 s⁻¹
A14G G41A | 0.000282 ± 3.2e-05 s⁻¹ | 0.000481 ± 7.9e-05 s⁻¹ | 0.00125 ± 0.00022 s⁻¹ | 0.00232 ± 0.00052 s⁻¹ | 0.00645 ± 0.0016 s⁻¹
A12U C16G U56G G59U | < 1e-05 s⁻¹ |  |  |  | 
A12G U57A | < 1e-05 s⁻¹ |  |  |  | 4.27e-05 ± 9.1e-06 s⁻¹
G13A C16G A64U | < 1e-05 s⁻¹ |  |  |  | 
A12U G41A G44C U55G | < 1e-05 s⁻¹ |  |  |  | < 1e-05 s⁻¹
G13C G41U C70U | < 1e-05 s⁻¹ |  |  |  | 
A14G A15U G29A | 3.49e-05 ± 1.3e-05 s⁻¹ |  |  |  | 0.00133 ± 0.00028 s⁻¹
A14G C71G | 0.00028 ± 3.6e-05 s⁻¹ | 0.000718 ± 0.00016 s⁻¹ | 0.00058 ± 7.9e-05 s⁻¹ |  | 0.00586 ± 0.0014 s⁻¹
A14G C71A | 0.000515 ± 6.3e-05 s⁻¹ | 0.000688 ± 0.00011 s⁻¹ | 0.00337 ± 0.00085 s⁻¹ | 0.0123 ± 0.0037 s⁻¹ | 
G13C G40U | < 1e-05 s⁻¹ | < 1e-05 s⁻¹ | < 1e-05 s⁻¹ |  | 
G13C C16U G63A | < 1e-05 s⁻¹ |  |  |  | 
